Reference: patent US20200216522A1 (DENALI THERAPEUTICS, published 2020)

Molecular target: T1, full-length human Tau (Tau441; 2N4R), recombinant (human, UniProt P10636 1-758)
T1 construct: made in E. coli, His6-Smt3 tag removed; biotinylated through amines for Octet and phage work; also called r-Tau; recombinant Tau
Test: SPR Biacore, antibody captured, r-Tau injected
Experimental: The affinity of each hybridoma antibody for r-Tau was determined by surface plasmon resonance using a Biacore™ T200 instrument. Biacore™ Series S CM5 sensor chips were immobilized with polyclonal rabbit anti-mouse IgG (Fc) antibody (mouse antibody capture kit from GE Healthcare). 1 μg/mL of antibody was captured for 1 minute on each flow cell and serial 3-fold dilutions of r-Tau were injected at a flow rate of […]. Each sample was analyzed with a 3-minute association and a 10-minute dissociation. After each injection, the chip was regenerated using 10 mM Glycine-HCl (pH 1.7). Binding response was corrected by subtracting the RU from a flow cell capturing an irrelevant IgG at similar density. A 1:1 Languir model of simultaneous fitting of kₒₙ and koff was used for kinetics analysis.

T1 sequence (P10636 other isoform, or with tags, fused parts or gaps limits assumed): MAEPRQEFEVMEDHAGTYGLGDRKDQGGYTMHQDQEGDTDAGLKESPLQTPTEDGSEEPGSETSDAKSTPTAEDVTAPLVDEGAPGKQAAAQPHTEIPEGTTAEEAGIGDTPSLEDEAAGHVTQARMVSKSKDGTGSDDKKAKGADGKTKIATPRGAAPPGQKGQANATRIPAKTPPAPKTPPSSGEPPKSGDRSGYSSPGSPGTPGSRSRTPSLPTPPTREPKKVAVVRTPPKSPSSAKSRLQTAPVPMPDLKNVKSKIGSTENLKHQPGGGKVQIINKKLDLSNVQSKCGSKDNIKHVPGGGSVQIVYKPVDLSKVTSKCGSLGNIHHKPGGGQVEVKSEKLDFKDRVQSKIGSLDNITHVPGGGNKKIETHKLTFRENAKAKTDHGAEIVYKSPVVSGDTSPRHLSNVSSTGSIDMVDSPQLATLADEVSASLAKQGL

B1: murine anti-Tau hybridoma antibody 17G2.A1 (antibody, V domains shown)
VH: QVQLQQPGAELVGPGSSVKLSCKASGYTFINYWIDWMKQSPGQGLEWIGNIYPSDSESHYNQKFTDKATLTVDISSSTAYLQLSSLTSEDSAVYYCALYSKGYWGQGTSVTVSS
VL: DVLMTQTPLSLPVTLGDQASISCRSSQNIVHTNGNTYLEWYLQKPGQSPKLLIYKLSSRFSGVPDRFSGSGSGTDFTLKISRVEAEDLGVYYCFQGSHLPFTFGGGTKLEIKR
notes: mouse IgG from hybridoma; also called anti-Tau 17G2.A1
For B1, the Kd was 2.48 nM, the koff was 0.000383 s⁻¹ and the kon was 155000 M⁻¹ s⁻¹.
